This is an account of results in patent US20120244577A1 (Zymeworks, published 2012).

This series deals with the molecule itself. The experiment in a line: co-expression in CHO-3E7, gel analysis (FIG. 6). How it is done: High level and high-throughput recombinant protein production by transient transfection of suspension-growing […] CHO-3E7 was performed. See Table 3 for construct boundaries of the two scaffolds described here: Albumin based heteromultimer 1 (ABH1) and Albumin based heteromultimer 2 (ABH2). Albumin based heteromultimer 2 comprises one disulfide bond between the two transporter polypeptides, while Albumin based heteromultimer 1 is formed entirely by non-covalent interactions. FIG. 6A provides SDS-PAGE (non-reducing) gel analysis of the two heteromultimer constructs (ABH1 and ABH2), after co-expression (different DNA transfection ratios are shown). WT full-length HSA is shown as control. As expected, ABH2 retains the disulfide linkage in non-reducing SDS-PAGE, with a MW roughly double the non-disulfide linked ABH1. FIG. 6B provides Native gel analysis of the two Albumin based heteromultimer constructs (ABH1 and ABH2), after co-expression (1:1 DNA level). WT full-length HSA is shown as control. […]
WT-HSA and the two Albumin based heteromultimers (ABH1 and ABH2) were expressed in CHO-3E7 cell line grown in suspension in FreeStyle F17 medium (Invitrogen) supplemented with 0.1% w/v pluronic and 4 mM glutamine. […] At 24-48 hours, GFP positive cells should be between 30-60% as determined by flow cytometry.

B1: Albumin based Transporter polypeptide 1-Ver 1 (other)
chain: DAHKSEVAHRFKDLGEENFKALVLIAFAQYLQQCPFEDHVKLVNEVTEFAKTCVADESAENCDKSLHTLFGDKLCTVATLRETYGEMADCCAKQEPERNECFLQHKDDNPNLPRLVRPEVDVMCTAFHDNEETFLKKYLYEIARRHPYFYAPELLFFAKRYKAAFTECCQAADKAACLLPKLDELRDEGKASSAKQRLKCASLQKFGERAFKAWAVARLSQRFPKAEFAEVSKLVTDLTKVHTECCHGDLLECADDRADLAKYICENQDSISSKLKECCEKPLLEKSHCIAEV
notes: also called ABH1 segment 1:293
On to B1, for which the binding result is “no binding”.

B2: Albumin based Transporter polypeptide 1-Ver 2 (other)
chain: DAHKSEVAHRFKDLGEENFKALVLIAFAQYLQQCPFEDHVKLVNEVTEFAKTCVADESAENCDKSLHTLFGDKLCTVATLRETYGEMADCCAKQEPERNECFLQHKDDNPNLPRLVRPEVDVMCTAFHDNEETFLKKYLYEIARRHPYFYAPELLFFAKRYKAAFTECCQAADKAACLLPKLDELRDEGKASSAKQRLKCASLQKFGERAFKAWAVARLSQRFPKAEFAEVSKLVTDLTKVHTECCHGDLLECADDRADLAKYICENQDSISSKLKECCEKPLLEKSHCIAEVENDEMPADLPSLAADFVESKDVCKNYAEAKDVFLGMFLYEYARA
notes: First chain of ABH2; also called F1; ABH2 segment 1:337
As for B2, the binding result is given as “no binding”.
